Experiments:
CD40 [1] = biological target: T1, CD40 (Homo sapiens, UniProt P25942); assay: FACS binding of human-rabbit chimeric anti-CD40 antibodies to Raji cells
Description: Raji cells are of a tumor cell line that overexpresses human CD40. 2E5 Raji cells were inoculated onto a 96-well plate. 100 μL of a test antibody was added, with the highest final concentration of 100 nM. The antibody was 5-fold diluted to 8 concentrations. The plate was incubated at 4° C. for 1 h. The plate was washed once with a washing buffer, and an AF647-conjugated anti-human IgG antibody (Jackson Immunoresearch Laborotories, Cat. #205-609-088) was added at a dilution ratio of 1:500. The plate was incubated at 4° C. for 30 min. The plate was washed once with the washing buffer, and fluorescence intensity was measured using a flow cytometer. The binding EC50 values of the anti-CD40 antibodies for CD40 were calculated. The anti-CD40 antagonistic antibody CFZ533 (i.e., iscalimab, Nova) was used as a positive control, and the heavy and light chain variable region sequences were derived from sequence 5 and sequence 2 of U.S. Pat. No. 8,277,810B, respectively.
Target sequence in this assay (P25942 21-277): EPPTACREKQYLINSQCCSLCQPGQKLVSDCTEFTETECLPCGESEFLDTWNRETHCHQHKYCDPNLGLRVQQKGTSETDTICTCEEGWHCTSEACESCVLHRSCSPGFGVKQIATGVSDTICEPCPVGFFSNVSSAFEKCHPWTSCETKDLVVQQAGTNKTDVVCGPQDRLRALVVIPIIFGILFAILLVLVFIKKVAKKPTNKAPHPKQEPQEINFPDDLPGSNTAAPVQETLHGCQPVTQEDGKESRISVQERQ

[2] = mouse, in vivo, ip, 10 mg/kg
Description: After arrival, the animals were acclimatized for 7 days and randomly grouped. On day 0 of the experiment, each group of mice was intraperitoneally injected with the anti-CD40 antibody at 10 mg/kg. 100-150 μL of blood samples were collected at 15 min, 4 h, and 8 h after administration, and on days 1, 2, 4, 7, 10, and 14 after administration, anticoagulated with 10 μL of EDTA-K2 (0.1 M), and stored on ice. Mouse plasma was assayed by ELISA for antibody concentration at different time points. The assay is specifically as follows: A goat anti-human IgG Fc antibody (Rockland, Cat. #609-101-017) was diluted to 2.5 μg/mL with PBS and added to a 96-well plate at 50 μL/well, and the plate was incubated overnight at 4° C. After three washes with a washing buffer, 50 μL of blocking solution was added to each well, and the plate was incubated at 37° C. for 1 h. The mouse plasma and the standard curve of the test antibody were added, and the plate was incubated at 37° C. for 2 h. After three washes with the washing buffer, anti-hlgG Fab-HRP (Sigma, Cat. #A0293, 1:10,000) was added at 50 μL/well, and the plate was incubated at room temperature for 1 h. The plate was washed three times with the washing buffer. TMB was added at 100 μL/well, and the mixtures were left to react in the dark for 5 min. 0.16 M sulfuric acid was added at 100 μL/well. The OD value at 450 nm was measured with an Envision microplate reader, and the concentrations of CD40 antagonistic antibodies were calculated.

CD40 [3] = biological target: T1, CD40; assay: Inhibition of CD40 reporter gene cell activity (HEK-Blue CD40L cells), humanized antibodies; format: cell-based; parameters: host or cells: HEK-Blue CD40L cells
Description: HEK-Blue CD40L cells were purchased from Invivogen (Cat. #hkb-cd40). The cells were stably transfected with the human CD40 gene and the NF-kB-mediated SEAP genome. The activation level of the CD40 signaling pathway can be characterized by measuring the amount of secreted SEAP in the supernatant using QUANTI-Blue, the substrate of SEAP. In the assays, the inhibitory effects of the CD40 antagonistic antibodies on the CD40L-induced HEK-Blue CD40L cell activation were measured, and the in vitro cell activity of the CD40 antagonistic antibodies was assessed based on IC50.
HEK-Blue CD40L cells were cultured in a DMEM medium containing 10% FBS, 100 μg/mL Normocin, 100 μg/mL Zeocin, and 30 µg/mL Blasticidin, with 2-3 passages a week. HEK-Blue CD40L cells were plated at 5E4 cells/well into a 96-well cell culture plate (the medium was DMEM containing 10% FBS and 100 μg/mL Normocin) and incubated overnight. […] CD40L-his (R&D, 2706-CL-025) and anti-His antibody (R&D, MAB050-500) were added, and the plate was incubated overnight. After cell centrifugation, 20 μL of the cell supernatant was transferred to a new 96-well white plate, and 180 μL of QUANTI-Blue substrate solution was added. […] The absorbance at 620 nm was measured with an Envision microplate reader, and IC50 values were calculated and used to assess the in vitro cell activity of the CD40 antagonistic antibodies.
Target sequence in this assay (P25942 21-277): as above

CD40 [4] = biological target: T1, CD40; assay: SPR (Biacore) affinity of anti-CD40 antibodies for human CD40; format: binding; parameters: Glu21-Arg193; purchased Acrobiosystems Inc. CD0-H5228; conditions: mobile phase Human CD40
Description: The test antibody was affinity-captured on an anti-human Fc chip, and a series of concentrations of His-tagged human or cynomolgus monkey CD40 antigen were allowed to flow over the chip surface. Reaction signals were detected in real time using a Biacore instrument, and thus association and dissociation curves were obtained. The buffer used in the experiment was HBS-EP+10× buffer solution (Cat. #BR-1006-69, GE) diluted to 1×(pH 7.4) with D. I. Water. Fitting was performed on the data obtained from the experiment using a (1:1) Binding model to obtain affinity values.
Target sequence in this assay (P25942 21-193): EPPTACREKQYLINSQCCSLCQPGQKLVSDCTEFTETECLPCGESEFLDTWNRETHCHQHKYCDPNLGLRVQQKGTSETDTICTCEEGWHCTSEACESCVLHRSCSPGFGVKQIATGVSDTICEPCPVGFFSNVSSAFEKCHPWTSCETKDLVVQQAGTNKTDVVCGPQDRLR

CD40 [5] = biological target: T1, CD40; assay: B cell activation assay system (human PBMCs, CD40L-induced CD19+CD69+); format: cell-based; parameters: endogenous in cells; host or cells: human PBMCs (B cells); DCs differentiated from human CD14+ monocytes; conditions: CD40L stimulation overnight
Description: CD40 is highly expressed in B cells, and CD40L, upon binding to CD40, can induce B cell activation and up-regulate the expression of a series of activation markers. CD40 antagonistic antibodies block the binding of CD40L to CD40, thereby eliminating the immune activation process of B cells.
Human PBMCs were plated at 2E5 cells/well and 50 μL/well into a 96-well cell culture plate (the medium was RPMI-1640 containing 10% FBS and 1% penicillin-streptomycin). Serially diluted test antibodies were added at 50 μL/well, and the cells were co-incubated at 37° C. in 5% CO2 for 0.5 h. CD40L-his and an anti-His antibody were added to each well for overnight stimulation. The following day, the plate was centrifuged, the supernatant was removed, and the cells were washed twice with FACS buffer and stained at room temperature for 15 min with 100 μL of Fixable viability dye EF780 (Invitrogen, 65086514) diluted at 1:1000. The cells were washed twice and then blocked at room temperature for 10 min with 100 μL of human Fc blocker (BD, 564220) diluted at 1:200. After centrifugation, the cells were incubated at 4° C. for 0.5 h with flow cytometry antibodies (PerCP/Cyanine5.5 anti-human CD19 (Biolegend, 302230), and APC anti-human CD69 (Biolegend, 310910)) diluted at 1:200. After centrifugation, the supernatant was removed, the cells were washed twice with FACS buffer and then resuspended in 200 μL of PBS, and the fluorescence intensity on the cell surface was measured by a flow cytometer (BD FACS Celesta).
With reference to the method in Example 10, the inhibitory activity of the anti-CD40 antibody 9E6-L4H2-AAYTE carrying the AAYTE mutation in the Fc in the B cell activation assay system was measured.
Target sequence in this assay (P25942 21-277): as the sequence (P25942 21-277) above

Substance: CFZ533: anti-CD40 antagonistic antibody CFZ533 (i.e., iscalimab), positive control, variable regions from U.S. Pat. No. 8,277,810B
- EC50 (CD40 [1]): 2.41 nM
- AUC(0-d14)((h) * (mg/L)) [2]: 12655 (h) * (mg/L)
- C max [2]: 75.95 µg/mL
- T1/2 [2]: 214.8 h
- IC50 (CD40 [3]; Experiment 1): 0.36 nM
- IC50 (CD40 [3]; Experiment 2): 0.35 nM
- Ka (CD40 [4]): 688000 M⁻¹ s⁻¹
- Kd (CD40 [4]): 0.205 nM
- koff (dissociation rate constant, 1/s) (CD40 [4]): 0.000141 s⁻¹
- CD19+CD69+ % Maximum inhibition rate (CD40 [5]): 95%
- CD19+CD69+ MFI Maximum inhibition rate (CD40 [5]): 110%
- IC50 (CD40 [5]; read-out: CD19+CD69+ % IC50): 0.14 nM
- IC50 (CD40 [5]; read-out: CD19+CD69+ MFI IC50): 0.07 nM
